Reference: article PMC3412365 (The Journal of neuroscience : the official journal of the …, 2011)

T1: RGS9-2 (mouse (endogenous in striatum), UniProt O54828-1 1-675)
T1 sequence (looked up): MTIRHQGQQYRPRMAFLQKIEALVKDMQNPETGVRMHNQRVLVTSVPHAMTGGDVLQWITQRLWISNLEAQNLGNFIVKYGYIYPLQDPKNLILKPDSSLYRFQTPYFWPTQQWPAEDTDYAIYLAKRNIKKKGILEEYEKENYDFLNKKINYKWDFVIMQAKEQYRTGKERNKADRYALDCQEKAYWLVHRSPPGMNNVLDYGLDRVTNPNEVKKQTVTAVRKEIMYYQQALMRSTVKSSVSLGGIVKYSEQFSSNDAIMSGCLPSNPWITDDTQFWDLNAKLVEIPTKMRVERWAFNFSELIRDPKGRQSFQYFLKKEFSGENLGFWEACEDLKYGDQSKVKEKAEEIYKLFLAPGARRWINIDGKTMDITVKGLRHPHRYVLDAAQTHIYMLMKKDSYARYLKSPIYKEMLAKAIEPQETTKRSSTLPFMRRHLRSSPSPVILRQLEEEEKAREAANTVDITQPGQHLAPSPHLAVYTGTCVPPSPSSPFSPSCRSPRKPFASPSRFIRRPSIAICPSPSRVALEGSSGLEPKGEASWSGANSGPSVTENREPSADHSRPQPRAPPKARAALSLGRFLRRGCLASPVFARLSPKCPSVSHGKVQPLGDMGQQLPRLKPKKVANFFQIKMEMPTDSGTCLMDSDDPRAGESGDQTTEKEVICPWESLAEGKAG

B1: Gαq (natural protein, mouse (endogenous in striatum), UniProt P21279 1-359, looked up)
chain: MTLESIMACCLSEEAKEARRINDEIERQLRRDKRDARRELKLLLLGTGESGKSTFIKQMRIIHGSGYSDEDKRGFTKLVYQNIFTAMQAMIRAMDTLKIPYKYEHNKAHAQLVREVDVEKVSAFENPYVDAIKSLWNDPGIQECYDRRREYQLSDSTKYYLNDLDRVADPSYLPTQQDVLRVRVPTTGIIEYPFDLQSVIFRMVDVGGQRSERRKWIHCFENVTSIMFLVALSEYDQVLVESDNENRMEESKALFRTIITYPWFQNSSVILFLNKKDLLEEKIMYSHLVDYFPEYDGPQRDAQAAREFILKMFVDLNPDSDKIIYSHFTCATDTENIRFVFAAVKDTILQLNLKEYNLV
B2: Gβ5 (natural protein, mouse (endogenous in striatum), UniProt P62881-2 1-353, looked up)
chain: MATDGLHENETLASLKSEAESLKGKLEEERAKLHDVELHQVAERVEALGQFVMKTRRTLKGHGNKVLCMDWCKDKRRIVSSSQDGKVIVWDSFTTNKEHAVTMPCTWVMACAYAPSGCAIACGGLDNKCSVYPLTFDKNENMAAKKKSVAMHTNYLSACSFTNSDMQILTASGDGTCALWDVESGQLLQSFHGHGADVLCLDLAPSETGNTFVSGGCDKKAMVWDMRSGQCVQAFETHESDVNSVRYYPSGDAFASGSDDATCRLYDLRADREVAIYSKESIIFGASSVDFSLSGRLLFAGYNDYTINVWDVLKGSRVSILFGHENRVSTLRVSPDGTAFCSGSWDHTLRVWA

Target: T1, RGS9-2
Assay: co-IP

Row | Binder | co-IP signal after chronic morphine, % compared with vehicle-treated mice [%]
1 | B1 | 216
2 | B2 | 171
